{"source": "paper PMC7840056", "data": [{"target": "NiuD permease subunit of the NiuBDE nickel ABC transporter, full length, fused to the T18 fragment (pUT18)", "experiment": "bacterial two-hybrid (BACTH), ß-galactosidase activity", "details": "E. coli strain BTH101; each measurement was performed three times; parent: est. 2400; read off a plot", "units": {"response": "Miller Units"}, "values": [{"substance": "SlyD wild type fused to the T25 fragment of Bordetella pertussis adenylate cyclase (pNKT25) (from UniProt O25748) I47S; Y73A; F137Y", "response": 1800}]}, {"target": "NiuDΔ7, C-terminally truncated NiuD fused to the T18 fragment", "experiment": "bacterial two-hybrid (BACTH), ß-galactosidase activity", "details": "E. coli strain BTH101; each measurement was performed three times; parent: est. 2500; read off a plot", "units": {"response": "Miller Units"}, "values": [{"substance": "SlyD wild type fused to the T25 fragment of Bordetella pertussis adenylate cyclase (pNKT25) (from UniProt O25748) I47S; Y73A; F137Y", "response": 2100}]}, {"target": "SlyD wild type fused to the T25 fragment of Bordetella pertussis adenylate cyclase (pNKT25) (UniProt O25748)", "experiment": "bacterial two-hybrid (BACTH), ß-galactosidase activity", "details": "E. coli strain BTH101; each measurement was performed three times; parent: est. 2500; read off a plot", "units": {"response": "Miller Units"}, "values": [{"substance": "NiuDΔ7, C-terminally truncated NiuD fused to the T18 fragment P203V", "response": 1500}, {"substance": "NiuDΔ7, C-terminally truncated NiuD fused to the T18 fragment R208G; W209G; R210G", "response": 30}, {"substance": "NiuDΔ7, C-terminally truncated NiuD fused to the T18 fragment R208Q", "response": 95}, {"substance": "NiuDΔ7, C-terminally truncated NiuD fused to the T18 fragment R208S", "response": 1000}, {"substance": "NiuDΔ7, C-terminally truncated NiuD fused to the T18 fragment R210G", "response": 120}, {"substance": "NiuDΔ7, C-terminally truncated NiuD fused to the T18 fragment W209F", "response": 1200}, {"substance": "NiuDΔ7, C-terminally truncated NiuD fused to the T18 fragment W209G", "response": 720}]}]}
